Reference: patent US8969053B2, “Mutant YqhD enzyme for the production of a biochemical by fermentation” (Metabolic Explorer, priority 2009, dated 2015)
Numbering of substitutions follows the chain as printed. In names and notes the source's numbering stands. Several values for one entry are separate records, joined by “and”; a condition that tells them apart may be missing. Identical values can stand only once.

T1: E. coli YqhD variant YqhD*(G149E) (Escherichia coli, UniProt Q46856, G149E)
T1 construct: made in house; host or cells: E. coli MG1655 ΔyqhD::Km carrying pTRC99A-yqhD*(G149E)
T1 sequence (Q46856 1-387 G149E): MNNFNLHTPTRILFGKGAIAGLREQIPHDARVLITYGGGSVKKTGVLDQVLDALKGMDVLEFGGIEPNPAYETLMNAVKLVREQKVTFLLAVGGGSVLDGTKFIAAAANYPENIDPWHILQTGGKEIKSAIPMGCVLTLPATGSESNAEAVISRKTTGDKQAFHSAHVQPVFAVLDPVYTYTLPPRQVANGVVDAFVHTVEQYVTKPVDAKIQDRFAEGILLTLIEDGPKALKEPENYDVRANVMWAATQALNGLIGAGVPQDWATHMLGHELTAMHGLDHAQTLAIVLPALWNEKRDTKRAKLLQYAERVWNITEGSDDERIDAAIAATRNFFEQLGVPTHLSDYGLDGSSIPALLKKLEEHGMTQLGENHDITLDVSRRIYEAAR

T2: E. coli YqhD variant YqhD*(G149S A286T) (Escherichia coli, UniProt Q46856, A286T/G149S)
T2 construct: made in house; host or cells: E. coli MG1655 ΔyqhD::Km carrying pTRC99A-yqhD*(G149S)(A286T)
T2 sequence (Q46856 1-387 G149S/A286T): T1 sequence (Q46856 1-387 G149E) with E149S, A286T

T3: Escherichia coli MG1655 YqhD, native (wild type), SEQ ID NO: 56 (Escherichia coli, UniProt Q46856)
T3 construct: made in house; host or cells: E. coli MG1655 ΔyqhD::Km carrying pTRC99A-yqhD
T3 sequence (Q46856 1-387): T1 sequence (Q46856 1-387 G149E) with E149G

B1: E. coli YqhD variant YqhD*(G149S A286T) (Escherichia coli K-12; A286T/G149S) (protein)
chain: T1 sequence (Q46856 1-387 G149E) with E149S, A286T
B2: Escherichia coli MG1655 YqhD, native (wild type), SEQ ID NO: 56 (Escherichia coli K-12) (protein)
chain: T1 sequence (Q46856 1-387 G149E) with E149G
B3: E. coli YqhD variant YqhD*(G149S) (Escherichia coli K-12; G149S) (protein)
chain: T1 sequence (Q46856 1-387 G149E) with E149S
B4: E. coli YqhD variant YqhD*(G149E) (Escherichia coli K-12; G149E) (protein)
chain: T1 sequence (Q46856 1-387 G149E)

Legend:
[1] = biological target: T1, E. coli YqhD variant YqhD*(G149E); experiment: inhibition by NADP+, YqhD*(G149E); type: biochemical
Method: (§1) Methylglyoxal reductase activity was assayed by measuring the initial rate of NADPH oxidation with a spectrophotometer at a wavelength of 340 nm and at a constant temperature of 37° C. The reaction mixture using methylglyoxal as substrate was carried out in 20 mM Hepes pH 7.5, 0.1 mM Zinc sulphate, 0.2 mM NADPH, 0.6 μg of purified enzyme in a final volume of 1 ml. The reaction mixture was incubated for 5 min at 37° C. and then the reaction was initiated by the addition of the substrate methylglyoxal at a final concentration of 10 mM. Control assay (blank), lacking the substrate was run in parallel and the value measured for the control was subtracted to the value measured for the assay to take into account non-specific oxidation of NADPH.
(§2) The NADP+ inhibition constant for three purified enzymes (yqhD, yqhD*(G149E) and yqhD*(G149S A286T)) were determined in the conditions described for the activity assay, excepted for the concentration of methylglyoxal that was increased to 20 mM. […] Five concentrations of the inhibitor NADP+ were used (0-0.05-0.1-0.2-0.5 mM) and the kinetics were recorded for each condition of inhibition. The NADP+ inhibition constant (Ki) of each protein was determined with the module enzyme kinetic from the software Sigma Plot (Systat Software Inc, San Jose, Calif.). […]

[2] = biological target: T2, E. coli YqhD variant YqhD*(G149S A286T); experiment: inhibition by NADP+, YqhD*(G149S A286T); type: biochemical
Method: as §1, §2

[3] = biological target: T3, Escherichia coli MG1655 YqhD, native (wild type), SEQ ID NO: 56; experiment: inhibition by NADP+, native YqhD; type: biochemical, E. coli
Method: as §1, §2

YqhD single mutant Q202A = details: versus parent YqhD, Li et al, 2008; cited from earlier work
[4] = system: YqhD double mutant D99Q N147H; details: versus parent YqhD, Li et al, 2008; cited from earlier work
YqhD (purified) = details: furfural reductase study, Miller et al (2009); read-out: Km value for NADPH; cited from earlier work
[5] = Methylglyoxal reductase activity assay, kinetics of purified YqhD enzymes toward co-factor NADPH; type: biochemical, E. coli
Method: as §1
(§3) One unit of enzyme activity was defined as the amount of enzyme that consumed 1 μmol substrate per minute under the conditions of the assay. Specific enzyme activity was expressed as units per mg of protein.
(§4) Kinetic constants (Km, kcat and kcat/Km) for the four purified enzymes (yqhD, yqhD*(G149E), yqhD*(G149S) and yqhD*(G149S A286T)) toward methylglyoxal were determined using the activity assay previously described. In this case the reaction was started by addition of the purified enzyme. Nine NADPH concentrations between 6 μM and 300 μM were analysed for each enzyme. For all kinetics, initial velocity was determined in triplicate for all co-factor concentrations.
Kinetic constants (Km and Vmax) of each protein were determined with the module enzyme kinetics from the software Sigma Plot (Systat Software Inc, San Jose, Calif.). […] The different kinetic parameters of four YqhD enzymes were compiled in Table 7.

[6] = Inhibition of the YqhD enzymes by NADP+ (competitive inhibition model); type: biochemical, E. coli; details: NADP+ inhibition experiment, 20 mM methylglyoxal
Method: as §1
The NADP+ inhibition constant for three purified enzymes (yqhD, yqhD*(G149E) and yqhD*(G149S A286T)) were determined in the conditions described for the activity assay, excepted for the concentration of methylglyoxal that was increased to 20 mM. Enzyme kinetics with regards to NADPH were realised with increasing concentration of NADPH between 50 and 200 μM. Five concentrations of the inhibitor NADP+ were used (0-0.05-0.1-0.2-0.5 mM) and the kinetics were recorded for each condition of inhibition. The NADP+ inhibition constant (Ki) of each protein was determined with the module enzyme kinetic from the software Sigma Plot (Systat Software Inc, San Jose, Calif.). A model of competitive inhibition was fitted by the software.

[7] = substrate: CC(=O)C=O; experiment: purified protein, by the assay type; details: other: methylglyoxal 1.3-30 mM, 0.2 mM NADPH, pH 7.5, 37° C.
Method: Kinetic constants (Km, kcat and kcat/Km) for the four purified enzymes (yqhD, yqhD*(G149E), yqhD*(G149S) and yqhD*(G149S A286T)) toward methylglyoxal were determined using the activity assay previously described. In this case the reaction was started by addition of the purified enzyme. Seven methylglyoxal concentrations between 1.3 mM and 30 mM were analysed for each enzyme. For all kinetics, initial velocity was determined in triplicate for all substrate concentrations.

[8] = substrate: NC(=O)C1=CN([C@@H]2O[C@H](COP(=O)(O)OP(=O)(O)OC[C@H]3O[C@@H](n4cnc5c(N)ncnc54)[C@H](OP(=O)(O)O)[C@@H]3O)[C@@H](O)[C@H]2O)C=CC1; experiment: purified protein, by the assay type; details: other: NADPH 6-300 μM, 10 mM methylglyoxal, pH 7.5, 37° C.
[9] = Methylglyoxal reductase activity assay, kinetics of purified YqhD enzymes toward methylglyoxal; type: biochemical, E. coli; details: for Kinetic parameters (Km, kcat, kcat/Km) compared to the native protein / Specific activity compared to that of YqhD: in words
Method: as §1, §3
as §4, with “Seven methylglyoxal” for “Nine NADPH”, “1.3 mM” for “6 μM”, “30 mM” for “300 μM”, “substrate” for “co-factor”
Kinetic constants (Km and Vmax) of each protein were determined with the module enzyme kinetics from the software Sigma Plot (Systat Software Inc, San Jose, Calif.). […] The different kinetic parameters of four YqhD enzymes were compiled in Table 6.

Molecule | Specific activity [5] [µmol/min/mg] | Specific activity [6] [µmol/min/mg] | Km [7] [µM] | kcat [7] [s⁻¹] | kcat/Km [7] [M⁻¹ s⁻¹] | Km [8] [µM] | kcat [8] [s⁻¹] | kcat/Km [8] | Specific activity [9] [µmol/min/mg] | other results
NC(=O)c1ccc[n+]([C@@H]2O[C@H](COP(=O)([O-])OP(=O)(O)OC[C@H]3O[C@@H](n4cnc5c(N)ncnc54)[C@H](OP(=O)(O)O)[C@@H]3O)[C@@H](O)[C@H]2O)c1 [NADP+] |  |  |  |  |  |  |  |  |  | Ki [1]: 28 ± 5 µM; Ki [2]: 16 ± 2.5 µM; Ki [3]: 68 µM
O=CCCO [3-HPA, 3-hydroxypropionaldehyde] |  |  |  |  |  |  |  |  |  | affinity (Km) for 3-HPA (YqhD single mutant Q202A): improved affinity (lower Km); catalytic efficiency (Kcat/Km) for 3-HPA (YqhD single mutant Q202A): improved catalytic efficiency; affinity (Km) for 3-HPA [4]: improved affinity (lower Km); catalytic efficiency (Kcat/Km) for 3-HPA [4]: improved catalytic efficiency
NC(=O)C1=CN([C@@H]2O[C@H](COP(=O)(O)OP(=O)(O)OC[C@H]3O[C@@H](n4cnc5c(N)ncnc54)[C@H](OP(=O)(O)O)[C@@H]3O)[C@@H](O)[C@H]2O)C=CC1 [NADPH] |  |  |  |  |  |  |  |  |  | Km (YqhD (purified)): 8 µM
B1 | 3.17 ± 0.02 | 5.25 ± 0.183 | 3280 ± 380 | 1.89 ± 0.07 | 577 ± 88 | 20 ± 2.2 | 2.2 ± 0.1 | 1.22 E+05 M−1s−1 and 1.13E+05 ± 1.3E+04 M−1s−1 | 2.69 ± 0.10 | Specific activity as share of the specific activity of YqhD [9]: 69%; Kinetic parameters (Km, kcat, kcat/Km) compared to the native protein [9]: identical to the native protein
B2 | 2.99 ± 0.1 | 3.63 ± 0.284 | 4810 ± 410 | 2.74 ± 0.08 | 570 ± 65 | 32 ± 4.2 | 2.1 ± 0.1 | 66000 ± 11000 M⁻¹ s⁻¹ | 3.91 ± 0.11 | 
B3 | 3.78 ± 0.15 |  | 3370 ± 340 | 2.67 ± 0.09 | 792 ± 105 | 22 ± 3.7 | 2.7 ± 0.1 | 122000 ± 25000 M⁻¹ s⁻¹ | 3.80 ± 0.12 | Kinetic parameters (Km, kcat, kcat/Km) compared to the native protein [9]: identical to the native protein; Specific activity compared to that of YqhD [9]: similar
B4 | 4.86 ± 0.08 | 5.53 ± 0.292 | 7800 ± 790 | 5.38 ± 0.21 | 689 ± 98 | 28 ± 1.8 | 3.4 ± 0.1 | 122000 ± 9800 M⁻¹ s⁻¹ | 7.65 ± 0.31 | Specific activity compared to that of YqhD [9]: almost doubled
